This is an account of results in article PMC6956818, “Activation of JNK and p38 MAPK Mediated by ZDHHC17 Drives Glioblastoma Multiforme Development and Malignant Progression” (Theranostics, 2020).

To fix the notation:
B1: Myc-tagged ZDHHC17 ANK (1-7) [human] / Flag-MAP2K4 [human] (parent complex)
chain 1: THIDDYSTWDIVKATQYGIYERCRELVEAGYDVRQPDKENVTLLHWAAINNRIDLVKYYISKGAIVDQLGGDLNSTPLHWATRQGHLSMVVQLMKYGADPSLIDGEGCSCIHLAAQFGHTSIVAYLIAKGQDVDMMDQNGMTPLMWAAYRTHSVDPTRLLLTFNVSVNLGDKYHKNTALHWAVLAGNTTVISLLLEAGANVDAQNIKGESALDLAKQRKNVWMINHLQEARQAKGYDN
chain 2: MAAPSPSGGGGSGGGSGSGTPGPVGSPAPGHPAVSSMQGKRKALKLNFANPPFKSTARFTLNPNPTGVQNPHIERLRTHSIESSGKLKISPEQHWDFTAEDLKDLGEIGRGAYGSVNKMVHKPSGQIMAVKRIRSTVDEKEQKQLLMDLDVVMRSSDCPYIVQFYGALFREGDCWICMELMSTSFDKFYKYVYSVLDDVIPEEILGKITLATVKALNHLKENLKIIHRDIKPSNILLDRSGNIKLCDFGISGQLVDSIAKTRDAGCRPYMAPERIDPSASRQGYDVRSDVWSLGITLYELATGRFPYPKWNSVFDQLTQVVKGDPPQLSNSEEREFSPSFINFVNLCLTKDESKRPKYKELLKHPFILMYEERAVEVACYVCKILDQMPATPSSPMYVD

The assay covers variants of B1. Briefly: co-immunoprecipitation, quantified immunoblot; HEK293 cell lysates; parent: 1; read off a plot.
In the case of chain 1 THIDDGSTWDIVKATQYGIYERCRELVEAGYDVRQPDKENVTLLHWAAINNRIDLVKYYISKGAIVDQLGGDLNSTPLHWATRQGHLSMVVQLMKYGADPSLIDGEGCSCIHLAAQFGHTSIVAYLIAKGQDVDMMDQNGMTPLMWAAYRTHSVDPTRLLLTFNVSVNLGDKYHKNTALHWAVLAGNTTVISLLLEAGANVDAQNIKGESALDLAKQRKNVWMINHLQEARQAKGYDN [chain 1 Y6G], the ratio to parent was approximately 0.35.

For chain 1 THIDDYSTWDIVKATQYGIYERCRELVEAGYDVRQPDKENVTLLHWAAINNRIDLVKYYISKGAIVDQLGGDLNSTPLHWATRGGHLSMVVQLMKYGADPSLIDGEGCSCIHLAAQFGHTSIVAYLIAKGQDVDMMDQNGMTPLMWAAYRTHSVDPTRLLLTFNVSVNLGDKYHKNTALHWAVLAGNTTVISLLLEAGANVDAQNIKGESALDLAKQRKNVWMINHLQEARQAKGYDN [chain 1 Q84G], the ratio to parent was approximately 0.85.

For the variant chain 1 THIDDYSTWDIVKATQYGIYERCRELVEAGYDVRQPDKENVTLLHWAAINNRIDLVKYYISKGAIVDQLGGDLNSTPLHGATRQGHLSMVVQLMKYGADPSLIDGEGCSCIHLAAQGGHTSIVAYLIAKGQDVDMMDQNGMTPLMWAAYRTHSVDPTRLLLTFNVSVNLGDKYHKNTALHWAVLAGNTTVISLLLEAGANVDAQNIKGESALDLAKQRKNVWMINHLQEARQAKGYDN [chain 1 W80G, chain 1 F117G], the ratio to parent was approximately 0.42.

For chain 1 THIGDYSTWDIVKATQYGIYERCRELVEAGYDVRQPDKENVTLLHWAAINNRIDLVKYYISKGAIVDQLGGDLNSTPLHWATRQGHLSMVVQLMKYGADPSLIDGEGCSCIHLAAQFGHTSIVAYLIAKGQDVDMMDQNGMTPLMWAAYRTHSVDPTRLLLTFNVSVNLGDKYHKNTALHWAVLAGNTTVISLLLEAGANVDAQNIKGESALDLAKQRKNVWMINHLQEARQAKGYDN [chain 1 D4G], the ratio to parent was approximately 0.43.

With chain 1 THIDDYSTWDIVKATQGGIYERCRELVEAGYDVRQPDKENVTLLHWAAINNRIDLVKYYISKGAIVDQLGGDLNSTPLHWATRQGHLSMVVQLMKYGADPSLIDGEGCSCIHLAAQFGHTSIVAYLIAKGQDVDMMDQNGMTPLMWAAYRTHSVDPTRLLLTFNVSVNLGDKYHKNTALHWAVLAGNTTVISLLLEAGANVDAQNIKGESALDLAKQRKNVWMINHLQEARQAKGYDN [chain 1 Y17G], the ratio to parent was approximately 0.33.

As for chain 1 THIDGYSTWDIVKATQYGIYERCRELVEAGYDVRQPDKENVTLLHWAAINNRIDLVKYYISKGAIVDQLGGDLNSTPLHWATRQGHLSMVVQLMKYGADPSLIDGEGCSCIHLAAQFGHTSIVAYLIAKGQDVDMMDQNGMTPLMWAAYRTHSVDPTRLLLTFNVSVNLGDKYHKNTALHWAVLAGNTTVISLLLEAGANVDAQNIKGESALDLAKQRKNVWMINHLQEARQAKGYDN [chain 1 D5G], the ratio to parent is approximately 0.75.

Consider chain 1 THIDDYSTWDIVKATQYGIYERCRELVEAGYDVRQPDKENVTLLHWAAINNGIDLVKYYISKGAIVDQLGGDLNSTPLHWATRQGHLSMVVQLMKYGADPSLIDGEGCSCIHLAAQFGHTSIVAYLIAKGQDVDMMDQNGMTPLMWAAYRTHSVDPTRLLLTFNVSVNLGDKYHKNTALHWAVLAGNTTVISLLLEAGANVDAQNIKGESALDLAKQRKNVWMINHLQEARQAKGYDN [chain 1 R52G], for which the ratio to parent is approximately 0.35.

Consider chain 1 THIDDYSTWDIVKATQYGIYERCRELVEAGYDVRQPDKENVTLLHWAAINNRIDLVKYYISKGAIVDQLGGDLNSTPLHWATGQGHLSMVVQLMKYGADPSLIDGEGCSCIHLAAQFGHTSIVAYLIAKGQDVDMMDQNGMTPLMWAAYGTHSVDPTRLLLTFNVSVNLGDKYHKNTALHWAVLAGNTTVISLLLEAGANVDAQNIKGESALDLAKQRKNVWMINHLQEARQAKGYDN [chain 1 R83G, chain 1 R150G], for which the ratio to parent was approximately 0.75.
